The target in series [1] is FLAG-tagged ubiquitin, P0CG48.
Series [2] has as its target ubiquitin-aminomethylcoumarin, P0CG48.
The target in series [3] is T1, RLRGG-AMC, C-terminal peptide motif of Ub and ISG15 coupled to aminomethylcoumarin.
T1 chain: RLRGG

Positions count from the first letter of the chain named. Numbers in names are those of the source.

Chain of ubiquitin-aminomethylcoumarin, P0CG48 (P0CG48 whole entry, looked up): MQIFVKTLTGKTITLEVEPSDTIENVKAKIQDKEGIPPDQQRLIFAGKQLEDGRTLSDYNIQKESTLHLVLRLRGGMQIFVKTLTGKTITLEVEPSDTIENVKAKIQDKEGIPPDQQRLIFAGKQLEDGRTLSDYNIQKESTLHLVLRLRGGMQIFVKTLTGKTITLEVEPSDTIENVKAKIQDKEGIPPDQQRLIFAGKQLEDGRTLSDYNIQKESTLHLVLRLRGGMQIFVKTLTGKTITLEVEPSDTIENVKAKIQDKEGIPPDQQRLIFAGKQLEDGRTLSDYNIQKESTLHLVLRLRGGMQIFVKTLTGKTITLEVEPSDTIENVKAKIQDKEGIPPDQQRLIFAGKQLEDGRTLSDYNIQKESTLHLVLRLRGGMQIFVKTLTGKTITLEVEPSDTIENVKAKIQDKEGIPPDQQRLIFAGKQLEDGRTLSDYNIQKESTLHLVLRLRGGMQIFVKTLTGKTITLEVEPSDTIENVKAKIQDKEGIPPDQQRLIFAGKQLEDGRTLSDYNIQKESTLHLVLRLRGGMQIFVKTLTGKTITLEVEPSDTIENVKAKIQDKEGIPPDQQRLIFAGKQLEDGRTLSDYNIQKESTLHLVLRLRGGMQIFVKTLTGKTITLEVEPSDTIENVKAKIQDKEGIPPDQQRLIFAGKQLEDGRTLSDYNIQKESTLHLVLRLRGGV
Chain of FLAG-tagged ubiquitin, P0CG48 (P0CG48 whole entry, looked up): as above

B1: EAV nsp2-3 polyprotein (residues 261-1064 of EAV pp1a) with N-terminal HA tag, PLP2 mutant I353R (protein)
chain: GYNPPGDGACGYRCLAFMNGATVVSAGCSSDLWCDDELAYRVFQLSPTFTVTIPGGRVCPNAKYAMICDKQHWRVKRAKGVGLCLDESCFRGRCNCQRMSGPPPAPVSAAVLDHILEAATFGNVRVVTPEGQPRPVPAPRVRPSANSSGDVKDPAPVPPVPKPRTKLATPNPTQAPIPAPRTRLQGASTQEPLASAGVASDSAPKWRVAKTVYSSAERFRTELVQRARSVGDVLVQALPLKTPAVQRYTMTLKMMRSRFSWHCDVWYPLAVIACLLPIWPSLALLLSFAIGLIPSVGNNVVLTALLVSSANYVASMDHQCEGAACLALLEEEHYYRAVRWRPITGALSLVLNLLGQVGYVARSTFDAAYVPCTVFDLCSFAILYLCRNRCWRCFGRCVRVGPATHVLGSTGQRVSKLALIDLCDHFSKPTIDVVGMATGWSGCYTGTAAMERQCASTVDPHSFDQKKAGATVYLTPPVNSGSALQCLNVMWKRPIGSTVLGEQTGAVVTAVKSISFSPPCCVSTTLPTRPGVTVVDHALYNRLTASGVDPALLRVGQGDFLKLNPGFRLIGGWIYGICYFVLVVVSTFTCLPIKCGIGTRDPFCRRVFSVPVTKTQEHCHAGMCASAEGISLDSLGLTQLQSYWIAAVTSGLVILLVCHRLAISALDLLTLASPLVLLVFPWASVGLLLACSLAGAAVKIQLLATLFVNLFFPQATLVTMGYWACVAALAVYSLMGLRVKVNVPMCVTPAHFLLLARSAGQSREQMLRVSAAAPTNSLLGVARDCYVTGTTRLYIPKEGGMVFE
For B1, the “density of the alpha-flag lane (amount of remaining ubiquitin conjugates)” value in series [1] is “shows a density of the alpha-flag lane that is about twice as high as that of the T312A lane”.

B2: EAV nsp2-3 polyprotein (residues 261-1064 of EAV pp1a) with N-terminal HA tag, PLP2 mutant T312A (protein)
chain: B1 chain with T52A, R93I
Turning to B2, the “density of the alpha-flag lane (amount of remaining ubiquitin conjugates)” value in series [1] is listed as “a mutant such as T312A already shows a level of DUB-activity that leads to a significantly denser alpha-flag lane, which represents the amount of remaining ubiquitin conjugates, than that of the wild-type virus”.

B3: EAV PLP2 domain (residues 261-392 of EAV pp1a) with C-terminal HIS6 purification tag, wild-type (protein)
chain: GYNPPGDGACGYRCLAFMNGATVVSAGCSSDLWCDDELAYRVFQLSPTFTVTIPGGRVCPNAKYAMICDKQHWRVKRAKGVGLCLDESCFRGICNCQRMSGPPPAPVSAAVLDHILEAATFGNVRVVTPEGQHHHHHH
Take B3: the kcat/KM (in general, the second-order rate constant that governs catalysis at low substrate concentration) in series [2] was determined as 21000 ± 2000 M⁻¹ s⁻¹; in series [3] it was 48 ± 8 M⁻¹ s⁻¹.

B4: EAV PLP2 domain I353R mutant (Ile353Arg), recombinant enzyme (protein)
chain: B3 chain with I93R
Consider B4, for which the kcat/KM in series [2] was found to be 1100 ± 100 M⁻¹ s⁻¹; in series [3], 71 ± 8 M⁻¹ s⁻¹. In addition, the “kcat/KM value for Ub-AMC against that of the wild-type” value in series [2] is “the kcat/KM value for Ub-AMC of the mutant I353R is 20 times lower than that of the wild-type virus”.
